Measurements as given in patent publication US20230365705A1 (DYNAMICURE BIOTECHNOLOGY, published 2023).
Read-outs that look alike come from different tables or passages of the source.

Experiments:
[1] = biological target: T1, Human CD93 on cells (human CD93 expressing CHO cells; HUVEC, U937 and KG1a cells) (human, UniProt Q9NPY3 22-652); assay: flow cytometry, CD93 expressing CHO cells, antibody 10 ug/ml, FITC-A
T1 construct: whole, on cells; also called hCD93 expressing CHO cells; hCD93 CHO cells
T1 sequence (looked up): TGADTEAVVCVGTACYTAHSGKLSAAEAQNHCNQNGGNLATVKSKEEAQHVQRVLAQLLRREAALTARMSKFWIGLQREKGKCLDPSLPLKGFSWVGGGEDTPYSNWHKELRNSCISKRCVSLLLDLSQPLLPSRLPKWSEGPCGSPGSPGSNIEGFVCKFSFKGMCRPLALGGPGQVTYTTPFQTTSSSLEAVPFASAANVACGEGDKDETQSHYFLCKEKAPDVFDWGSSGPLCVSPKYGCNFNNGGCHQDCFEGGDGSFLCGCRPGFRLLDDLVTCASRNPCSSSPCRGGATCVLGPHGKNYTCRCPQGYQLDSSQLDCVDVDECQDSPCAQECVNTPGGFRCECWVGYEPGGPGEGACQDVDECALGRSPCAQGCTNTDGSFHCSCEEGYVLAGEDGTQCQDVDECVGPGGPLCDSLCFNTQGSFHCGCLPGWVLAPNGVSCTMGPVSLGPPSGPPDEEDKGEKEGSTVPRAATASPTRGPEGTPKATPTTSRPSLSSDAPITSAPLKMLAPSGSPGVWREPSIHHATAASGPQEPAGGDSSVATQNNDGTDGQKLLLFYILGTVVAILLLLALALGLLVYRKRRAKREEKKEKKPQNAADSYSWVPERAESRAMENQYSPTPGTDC
Experimental: Human CD93 expressing CHO cells were detached by incubation with TrypLE reagents (Thermos Fisher), which preserves the integrity of CD93 on the cell surface. […] After washing with FACS buffer twice, the samples were acquired in NovoCyte Flow Cytometer and analyzed by NovoExpress software.

[2] = biological target: T2, Human CD93 recombinant protein (Sino Biological Inc, Catalog #12589-H08H) (human, UniProt Q9NPY3 22-580); assay: BLI (Octet QKe), biotinylated human CD93 on streptavidin biosensors
T2 construct: Biotinylated (EZ-LINK NHS-PEG4 biotin) in the BLI assays; also called hCD93; His-tagged human CD93
T2 sequence (looked up): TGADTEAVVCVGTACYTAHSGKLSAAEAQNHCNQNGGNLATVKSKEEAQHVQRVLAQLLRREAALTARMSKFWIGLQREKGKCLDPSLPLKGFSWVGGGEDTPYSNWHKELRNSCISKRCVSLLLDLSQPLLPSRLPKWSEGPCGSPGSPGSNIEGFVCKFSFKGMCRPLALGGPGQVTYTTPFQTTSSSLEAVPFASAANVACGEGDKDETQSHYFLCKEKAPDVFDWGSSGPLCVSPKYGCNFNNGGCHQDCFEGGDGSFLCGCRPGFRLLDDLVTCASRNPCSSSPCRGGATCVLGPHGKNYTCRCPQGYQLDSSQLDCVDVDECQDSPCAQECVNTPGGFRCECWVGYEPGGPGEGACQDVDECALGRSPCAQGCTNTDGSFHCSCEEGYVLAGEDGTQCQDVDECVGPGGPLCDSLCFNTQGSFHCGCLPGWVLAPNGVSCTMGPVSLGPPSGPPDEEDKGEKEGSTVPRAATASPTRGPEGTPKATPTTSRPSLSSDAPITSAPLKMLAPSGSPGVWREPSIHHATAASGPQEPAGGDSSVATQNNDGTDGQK
Experimental: The binding affinity of anti-CD93 antibodies were determined with bio-layer interferometry using Octet QKe (Fortebio). Human CD93 recombinant protein (Sino Biological Inc, Catalog #12589-H08H) or cynomolgus CD93 protein (made in-house) were biotinylated using EZ-LINK NHS-PEG4 biotin (Thermo Fisher Scientific). Streptavidin biosensors (Fortebio) were used to load biotinylated CD93 protein (300 seconds in 5 μg/ml). The baseline was stabilized for 60 seconds in 1× kinetics buffer (Fortebio) before anti-CD93 antibodies at a serial dilution were allowed to associate for 300 seconds with captured protein. Then the sensors were dissociated in 1× kinetics buffer for 600 seconds.

[3] = biological target: T1, Human CD93 on cells (human CD93 …); assay: flow cytometry, CHO cells overexpressing human CD93, antibody 0.01ug, mIgG1 as control, APC-A
[4] = biological target: T1, Human CD93 on cells (human CD93 …); assay: as above; remark: listed apart in the source

| Binder | binding result [1] | binding result [2] | M2 gate, % of cells [3] [%] | M2 gate, % of cells [4] [%] |
| --- | --- | --- | --- | --- |
| 5H9 (antibody, IgG2a, V domains shown, also called 5H9 mIgG2a) VH: QVQLQQSGPDLVKPGASVKISCKASGYAFSTYWMNWVKQRPGKGLEWIGRIFPGDGDANYNGKFKGKATLTADKSSSTAYMQLSSLTSEDSAVYFCTRTGAAYDFDPFPYWGQGTLVTVSA VL: DIVMTQAAFSNPVTLGTSASISCSSSKSLLHSNGVTYLYWYLQRPGQSPQLLIYRMSNLASGVPDRFSGSGSGTDFTLRISRVEAEDVGIYYCAQMLERPFTFGSGTKLEIK | binds | binds |  |  |
| 17A7 (antibody, V domains shown, Mouse hybridoma monoclonal antibody) VH: QVQLQQSGPELVKPGASVKISCKGSGYAFSTYWMNWVKQRPGKGLEWIGRIFPGDGDTDYDGKFKGKATLTADKSSNTAYMQLSSLTSEDSAVYFCARTGAAYEFDPFPYWGQGTLVTVSA VL: DIVMTQAAFSNPVTLGTSASISCSSTKSLLHSSGITYLYWYLQRPGQSPQLLIYRMSNLASGVPDRFSGSGSGTDFTLRISRVEAEDVGVYYCAQMLERPFTFGSGTKLEIK | binds | binds |  |  |
| 12H4 (antibody, V domains shown, Mouse hybridoma monoclonal antibody) VH: EVQLQQSGPELVKPGASVKVSCKASGYTFTDYYIHWVKQRPGQGLEWIGEIYPGSDDAYYNEKFKGKATLTADKSSSTAYMQLSSLTSEDSAVYFCTRETTATAYWGQGTLVTVSA VL: QIVLTQSPAIMSASPGEKVTITCSASSSVSLIYWFQQKPGTSPKLWIYSTSNLASGVPARFSGSGSGTSYSLTISRMEAEDAATYYCQQRSGYPPTFGGGTKLEIK | binds | binds |  |  |
| 16B6 (antibody, V domains shown, Mouse hybridoma monoclonal antibody) VH: QVQLQQSGPELVKPGASVKISCKASGYAFSRSWMNWVKQRPGKGLEWIGWIYPGDGDTNYNGKFKGKATLTADKSSSTAYMQLSSLTSEDSAAYFCARSATLPYWYFDVWGAGTTVTVSS VL: DIKMTQSPSSMYASLGERVTITCKASQDIKSYLSWYQQKPWKSPKTLIYYATNLADGVPSRFSGSGSGQDYSLTISSLGSDDTATYYCLQHVESPWTFGGGTKLEIK | binds | binds |  |  |
| 16G9 (antibody, V domains shown, Mouse hybridoma monoclonal antibody) VH: EVQLQQSGPELVKPGASVKMSCKASGYTFTDYYMNWVKQSHGKSLEWIGRVNPNNGGKTYNQKFKGKATLTVDKSLSTAYMQLNSLTSEDSAVYYCARWRLRPVDYGMDYWGQGTSVTVSS VL: DIVLTQSPASLAVSLGQRATISCRASQSVSTSSYSYMHWYQQKPGQPPKLLIKYASNLESGVPARFSGSGSGTDFTLNIHPVEEEDTATYYCQHSWEIPFTFGSGTKLEIK | binds | binds |  |  |
| 17E6 (antibody, V domains shown, Mouse hybridoma monoclonal antibody) VH: EVQLQQSGPELVKPGASVKMSCKASGYTFTSYVIHWVKQKPGQGLEWIGYINPYSDYTQYNEKFKGKATLTSDKSSSTAYMELSSLTSEDSAVYSCARRADGNPYAMDYWGQGTSVTVSS VL: DIVMTQSHKFMSTSVGDRVSTTCKASQDVSTAVVWYQQKPGQSPKLLIYSASYRYTGVPDRFTGSGSGTDFTFTITSVQAEDLAVYYCQQHYSTPFTFGSGTKLEIK | binds | binds |  |  |
| 19B5 (antibody, V domains shown, Mouse hybridoma monoclonal antibody) VH: DVNLVESGGGLVKLGGSLKLSCAASGFTFSNYYMSWVRQSPEKRLEWVATISNNGDSTYYLDTVKGRFTISRDSAENTLYLQMSSLISEDTAVYYCTRVGTGFTYWGQGTLVTVSA VL: DIVLTQSPATLSVTPGDSVSLSCRASQSINNYLHWYQQRSHESPRLLIKFASQSISDIPSRFSGSGSGTDFTLSINSIETEDFGMYFCQQSNSWPLTFGAGTKLELK | binds | binds |  |  |
| 19E12 (antibody, V domains shown, Mouse hybridoma monoclonal antibody) VH: QVQLQQSGAELVRPGASVKLSCKASGYTFTDYEMHWVRQTPVHGLEWIGGIDPETGGTAYNQKFKGKATLTADKSSSTAYMELRSLTSEDSAVYYCTRGAWFAYWGQGTLVTVSA VL: QAVVTQESALTTSPGETVTLTCRSSTGAVTTSNSANWVQEKPDHLFTGLIGGTNNRAPGVPARFSGSLIGDKAALTITGAQTEDEAIYFCALWYNNHFVFGGGTKLTVL | binds | binds |  |  |
| 20C7 (antibody, V domains shown, Mouse hybridoma monoclonal antibody) VH: EVQLQQSGPELVNPGASVKMSCKASGYTFTAYVMHWVKQKPGQGLEWIGYIFPYNDGTEYNEKFKGKATLTSDKSSSTAYMELSSLTSEDSAVYYCARRTDGNPYTMDYWGQGTSVTVSS VL: DIVMTQSHKFMSTSVGDRVSITCKASQDVSTAVAWYQQKPGQSPKLLIHSASYRYTGVPDRFTGRGSGTDFTFTISSVQAEDLAVYYCQQHYSTPFTFGSGTKLEIK | binds | binds |  |  |
| humanized 17B10 H1L1 (antibody, mouse IgG1, V domains shown, Chimeric Fc: human CH1, mouse IgG1 CH2 and CH3) VH: QVQLVQSGAEVKKPGSSVKVSCKASGYAFSSYWLNWVRQAPGQGLEWFGRIYPGDGDTDYNGKFKGRVTLTADKSTSTAYMELSSLRSEDTAVYFCVRGDGYWAMDYWGQGTTVTVSS VL: DIVMTQSPLSLPVTPGEPASISCRFSQSLLHSNGITYLYWYLQKPGQSPQLLIYQMSNLASGVPDRFSGSGSGTDFTLKISRVEAEDVGVYYCAQNLELPWTFGGGTKLEIK |  |  | 99 |  |
| humanized 17B10 H1L2 (antibody, mouse IgG1, V domains shown, Chimeric Fc: human CH1, mouse IgG1 CH2 and CH3) VH: QVQLVQSGAEVKKPGSSVKVSCKASGYAFSSYWLNWVRQAPGQGLEWFGRIYPGDGDTDYNGKFKGRVTLTADKSTSTAYMELSSLRSEDTAVYFCVRGDGYWAMDYWGQGTTVTVSS VL: DIVMTQTPLSLPVTPGEPASISCRFSQSLLHSNGITYLYWYLQKPGQSPQLLIYTMSNLASGVPDRFSGSGSGTDFTLKISRVEAEDVGVYYCAQNLELPWTFGGGTKLEIK |  |  | 92.1 |  |
| humanized 17B10 H2L1 (antibody, mouse IgG1, V domains shown, Chimeric Fc: human CH1, mouse IgG1 CH2 and CH3) VH: QVQLVQSGAEVVKSGASVKVSCKASGYAFSSYWLNWVRQAPGQGLEWFGRIYPGDGDTDYNGKFKGRVTLIRDTSTSTVYMELTSLTSEDTAVYYCVRGDGYWAMDYWGQGTLVTVSS VL: DIVMTQSPLSLPVTPGEPASISCRFSQSLLHSNGITYLYWYLQKPGQSPQLLIYQMSNLASGVPDRFSGSGSGTDFTLKISRVEAEDVGVYYCAQNLELPWTFGGGTKLEIK |  |  |  | 98.2 |
| humanized 17B10 H2L3 (antibody, mouse IgG1, V domains shown, Chimeric Fc: human CH1, mouse IgG1 CH2 and CH3) VH: QVQLVQSGAEVVKSGASVKVSCKASGYAFSSYWLNWVRQAPGQGLEWFGRIYPGDGDTDYNGKFKGRVTLIRDTSTSTVYMELTSLTSEDTAVYYCVRGDGYWAMDYWGQGTLVTVSS VL: DIVMTQSPDSLAVSLGERATINCRFSKSLLHSNGITYLYWYQQKPGQPPKLLIYQMSNLASGVPDRFSGSGSGTDFTLTISSLQAEDVAVYYCAQNLELPWTFGGGTKLEIK |  |  | 99.2 |  |
| humanized 17B10 H3L1 (antibody, mouse IgG1, V domains shown, Chimeric Fc: human CH1, mouse IgG1 CH2 and CH3) VH: QVQLVQSGPEVKKPGESLKISCKASGYAFSSYWLNWVRQMPGKGLEWMGRIYPGDGDTDYNGKFKGQVTISADKSSGTAYLQLSSLKASDTAVYFCVRGDGYWAMDYWGQGTLVTVSS VL: DIVMTQSPLSLPVTPGEPASISCRFSQSLLHSNGITYLYWYLQKPGQSPQLLIYQMSNLASGVPDRFSGSGSGTDFTLKISRVEAEDVGVYYCAQNLELPWTFGGGTKLEIK |  |  | 99.5 |  |
